Data reported in patent US20090203602A1.

Experiments:
[1] = biological target: PRKCB1 (PKC beta I) Protein kinase C, beta 1, P05771; experiment: cell-based or functional assay
[2] = biological target: BRAF V599E V-raf murine sarcoma viral oncogene homolog B1 V599E mutation, P15056; experiment: cell-based or functional assay

% Inhibition mean [1]: 88%
% Inhibition mean [2]: 99.8%
Binder: SGRPPMIVWFNRPFLIAVSHTHGQTILFMAKVINPVGA [D3 peptide]
